Measured values published in PMC7483473.

Biological target: mNeonGreen labeled metabotropic glutamate receptor 3, Q14832
Assay: stepwise photobleaching (subunit counting) of single complexes by TIRF; SPReAD: expressing cells co-plated with VSVG-U2OS cells (typically 10:1), fused at pH 5.5, syncytia fixed with 4% paraformaldehyde, room temperature; mGluR lines were HEK293T fused with U2OS
Details: remark: other sources report otherwise

B1: mNeonGreen labeled metabotropic glutamate receptor 3, Q14832 23-879 (receptor)
chain: LGDHNFLRREIKIEGDLVLGGLFPINEKGTGTEECGRINEDRGIQRLEAMLFAIDEINKDDYLLPGVKLGVHILDTCSRDTYALEQSLEFVRASLTKVDEAEYMCPDGSYAIQENIPLLIAGVIGGSYSSVSIQVANLLRLFQIPQISYASTSAKLSDKSRYDYFARTVPPDFYQAKAMAEILRFFNWTYVSTVASEGDYGETGIEAFEQEARLRNICIATAEKVGRSNIRKSYDSVIRELLQKPNARVVVLFMRSDDSRELIAAASRANASFTWVASDGWGAQESIIKGSEHVAYGAITLELASQPVRQFDRYFQSLNPYNNHRNPWFRDFWEQKFQCSLQNKRNHRRVCDKHLAIDSSNYEQESKIMFVVNAVYAMAHALHKMQRTLCPNTTKLCDAMKILDGKKLYKDYLLKINFTAPFNPNKDADSIVKFDTFGDGMGRYNVFNFQNVGGKYSYLKVGHWAETLSLDVNSIHWSRNSVPTSQCSDPCAPNEMKNMQPGDVCCWICIPCEPYEYLADEFTCMDCGSGQWPTADLTGCYDLPEDYIRWEDAWAIGPVTIACLGFMCTCMVVTVFIKHNNTPLVKASGRELCYILLFGVGLSYCMTFFFIAKPSPVICALRRLGLGSSFAICYSALLTKTNCIARIFDGVKNGAQRPKFISPSSQVFICLGLILVQIVMVSVWLILEAPGTRRYTLAEKRETVILKCNVKDSSMLISLTYDVILVILCTVYAFKTRKCPENFNEAKFIGFTMYTTCIIWLAFLPIFYVTSSDYRVQTTTMCISVSLSGFVVLGCLFAPKVHIILFQPQKNVVTHRLHLNRFSVSGTGTTYSQSSASTYVPTVCNGREVLDSTTSSL
For B1, the fraction by stepwise photobleaching (dimer fraction, as the sentence seems to mean) was 33.5%.
